Test results published in patent publication US7824885B2, “Engineered proteases for affinity purification and processing of fusion proteins” (University of Maryland, College Park, priority 2003, dated 2010).

How the values were obtained:
Assay type in all cases: biochemical
fusion protein pR58-GB = assay: kinetics of fusion protein pR58-GB cleavage by D32 mutants, anion triggered; conditions: 0.1M KPi; for Rate vs. [Cl]: pH 8.8, 23 C; for Rate vs. pH: 23 C
From the text: Particularly advantageous are processing proteases whose activity is triggered on demand. Ions which have been useful as triggers are OH— (pH), Cl— and F—. The tables summarize cleavage rates of various D32 mutants as a function of specific anion.
Thus, S189 can be trigger to increase cleavage rates if desired and this can be very advantageous when required in a purification process. Once the fusion protein is bonded to the subtilisin variant to form a binding complex, the target protein can be cleaved from the prodomain protein by activation of the subtilisin variant with the introduction of an activating ion solution.

671 (pR58FKAM-GB) = assay: fluoride-triggered cleavage/elution of 671 fusion protein on S189HT1 column; conditions: cleavage/elution by 0.1M KF, FIG. 14
Method: (10 μl of 1 ml fraction 1; ˜7 μg total) • Lane 6: cleavage/elution by 0.1 M KF. (10 μl of 1 ml fraction 2; ˜3 μg total) • Lane 7: strip by 0.1 M H3PO4 (10 μl of 1 ml fraction 1; ˜10 μg total in both bands combined).

pR58-GB = assay: binding and cleavage of pR58-GB on immobilized S189 matrix
Method: The binding and catalytic properties of processing subtilisin allows them to be used as both the affinity matrix and processing protease for purification of proteins tagged with the pR58 sequence.
An E. coli cell lysate containing pR58-GB was passed over the matrix containing immobilized S189. Cleavage of the bound fusion protein then was then effected either by addition of a triggering anion (e.g. 10 mM KF) or by extended incubation (e.g. 18 hours at pH 7.2) as shown in FIG. 6. After cleavage the pure, processed protein was washed off the matrix while the cognate prodomain remains tightly bound to subtilisin on the matrix. Multiple rounds of purification can be affected by stripping the pR58 from the S189 column at pH 2.1 and re-equilibrating the column at neutral pH. High stable and facile-folding mutants such as those listed in the Table 1 (FIG. 3) of Processing Subtilisin are required for column recycling.

B1: S189: processing subtilisin with D32A mutation (protein, UniProt P00782 108-382, looked up, variant D32A)
Subtilisin BPN': AQSVPYGVSQIKAPALHSQGYTGSNVKVAVIASGIDSSHPDLKVAGGASMVPSETNPFQDNNSHGTHVAGTVAALNNSIGVLGVAPSASLYAVKVLGADGSGQYSWIINGIEWAIANNMDVINMSLGGPSGSAALKAAVDKAVASGVVVVAAAGNEGTSGSSSTVGYPGKYPSVIAVGAVDSSNQRASFSSVGPELDVMAPGVSIQSTLPGNKYGAYNGTSMASPHVAGAAALILSKHPNWTNTQVRSSLENTTTKLGDSFYYGKGLINVQAAAQ
- Rate (fusion protein pR58-GB; pH 7.2, 23 C): 0.18 h⁻¹
- Rate vs. [Cl] (fusion protein pR58-GB; [Cl] 0 M): 0.97 h⁻¹
- Rate vs. [Cl] (fusion protein pR58-GB; [Cl] 0.5 M): 5 h⁻¹
- Rate vs. [F] (fusion protein pR58-GB; [F] 0 mM, pH 7.2, 23 C): 0.003 min⁻¹
- Rate vs. [F] (fusion protein pR58-GB; [F] 1 mM, pH 7.2, 23 C): 0.018 min⁻¹
- Rate vs. [F] (fusion protein pR58-GB; [F] 10 mM, pH 7.2, 23 C): 0.14 min⁻¹
- Rate vs. [F] (fusion protein pR58-GB; [F] 100 mM, pH 7.2, 23 C): 0.8 min⁻¹
- Rate vs. pH (fusion protein pR58-GB; pH 5.7): 0.135 hr^−1
- Rate vs. pH (fusion protein pR58-GB; pH 7.2): 0.18 hr^−1
- Rate vs. pH (fusion protein pR58-GB; pH 8.8): 0.97 hr^−1
- Rate vs. pH (fusion protein pR58-GB; pH 10.0): 4 hr^−1
- cleavage reaction complete (671 (pR58FKAM-GB)): ~90%
- rate of binding to the prodomain (pR58-GB; FIG. 5): rapid
- half-time of cleavage (pR58-GB; FIG. 6, a lag phase is evident): about four
